Key:
[1] = target: hu4-1BB constitutively expressed on NF-kB-luc2/4-1BB Jurkat reporter cells (Promega, #JA2351) (human, UniProt Q07011 24-255); test: cell-based or functional assay
[2] = target: T1, recombinant His-tagged hu4-1BB (Sino Biological, #10014-H08H) (human, UniProt Q07011 24-186); test: titration ELISA on plastic immobilized His-tagged hu4-1BB, GAM-HRP
T1 construct: Bought; also called soluble hu4-1BB; not shown: His tag
T1 sequence (Q07011 24-186 limits assumed): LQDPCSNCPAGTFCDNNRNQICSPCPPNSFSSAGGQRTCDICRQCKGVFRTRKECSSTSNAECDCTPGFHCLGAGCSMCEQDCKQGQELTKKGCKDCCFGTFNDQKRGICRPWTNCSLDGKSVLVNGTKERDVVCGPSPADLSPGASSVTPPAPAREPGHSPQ

Sequence of hu4-1BB constitutively expressed on NF-kB-luc2/4-1BB Jurkat reporter cells (Promega, #JA2351) (Q07011 24-255): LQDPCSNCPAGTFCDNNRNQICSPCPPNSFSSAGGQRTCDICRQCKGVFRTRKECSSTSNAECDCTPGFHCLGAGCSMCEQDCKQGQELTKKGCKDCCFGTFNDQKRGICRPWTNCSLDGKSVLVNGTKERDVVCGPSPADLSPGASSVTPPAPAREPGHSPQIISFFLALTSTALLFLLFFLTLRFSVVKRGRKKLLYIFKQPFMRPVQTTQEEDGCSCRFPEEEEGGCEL

B1: urelumab (anti-hu4-1BB, BMS-663513) (antibody, V domains shown)
VH: QVQLQQWGAGLLKPSETLSLTCAVYGGSFSGYYWSWIRQSPEKGLEWIGEINHGGYVTYNPSLESRVTISVDTSKNQFSLKLSSVTAADTAVYYCARDYGPGNYDWYFDLWGRGTLVTVSS
VL: EIVLTQSPATLSLSPGERATLSCRASQSVSSYLAWYQQKPGQAPRLLIYDASNRATGIPARFSGSGSGTDFTLTISSLEPEDFAVYYCQQRSNWPPALTFGGGTKVEIK
- EC50 (read off the curve); NF-kB reporter, co-culture with CHO [Cont.) c] [1]: ~0.1 nM
- EC50 (read off the curve); NF-kB reporter, co-culture with CHO^huFcγRIIb [Cont.) c] [1]: ~0.06 nM

B2: 4-1BB IgG (SAP3.28 IgG), anti-hu4-1BB chimeric antibody (antibody, V domains shown)
VH: QVQLQESGPGLVRPSQTLSLTCTVSGFSLTSYGVHWVRQPPGRGLEWIGVIWRGGSTDYNAAFMSRLSITKDNSKSQVFFEMNSLQADDTAIYYCASPLGTSWDAMDYWGQGSLVTVSS
VL: DIQMTQSPSSLSASVGDRVTITCRASQDISNYLNWYQQKPGKAPKLLIYYKSRLHSGVPSRFSGSGSGTDYTLTISSLQPEDFATYYCQQGNTLPYTFGQGTKVEIK
notes: Bivalent IgG with the Fc region of murine IgG1, supplied by Prof; M. Glennie; also called SAP3.28 mAb; 4-1EE IgG
- EC50 (read off the curve) [2]: ~0.2 µg/mL
- EC50 (read off the curve); NF-kB reporter, co-culture with CHO^huFcγRIIb [Cont.) c] [1]: ~1 nM
